Substrate in the data set: Cc1cn([C@H]2C[C@H](O)[C@@H](COP(=O)(O)OP(=O)(O)O[C@H]3O[C@@H](C)[C@H](O)[C@@H](O)[C@H]3O)O2)c(=O)[nH]c1=O
As to the kind of experiment: anti-rhamnosylarginine Western blot, band intensity, Michaelis-Menten fit. Type of data set: biochemical, Pseudomonas putida. The note with it: 2.5 μM unmodified EF-P of P. putida as acceptor, 0.1 μM EarP, 100 mM sodium phosphate pH 7.6, 30 °C, 20 s, commercial TDP-Rha.

From PMC6544042, “Switching the Post-translational Modification of Translation Elongation Factor EF-P” (Frontiers in Microbiology, 2019) come the findings set out here.

B1: EarPPpu (Pseudomonas putida KT2440) (protein)
chain: MKATWDIFCSVVDNYGDIGVTWRLARQLVAEHGLAVRLWVDDLNAFTPMCPGADATAAQQWQHGVDVRHWPAAWLPVAPADVVIGAFACQLPAAYVEAMRARPQPPLWLNLEYLSAEDWVEGCHGLPSPQPNGLRKVFFFPGFTDKTGGLLREGSLLARRDGFQQSAEARRAFLQGLGVDLVPGALLISLFAYENPQLGNWLDALATADQPCHLLVPQGRVVAGLSQWLGEGPLHVGDVRTRGALTVQVLPFVSQDDFDRLLWSCDFNAVRGEDSFVRAQWAGQPMLWHIYVQDENAHWEKLEAFLAHYRCGLSDDADAALLGLWRAWNMDFDMGQAWRAARQHWPELQQHARLWGARQAAQPDLATALVHFYRNSL
notes: C-terminal His6 tag kept; pBAD33-earPPpu, E. coli LMG194 host, Ni-NTA purified; GT-B fold, GT104 family
For B1, the Km was determined as 5 µM.
